Measurements from article PMC7978432.

Target: SARS-CoV-2 S2GΔHR2-5GS-1TD0 (SARS-CoV-2 | not stated) (UniProt P0DTC2)
Assay: native gel or EMSA

SARS-CoV-2 S2GΔHR2-5GS-1TD0 (from UniProt P0DTC2 14-1149)
stoichiometry N: 3
